Test results as given in the supplement of paper PMC10724198.
± gives the standard deviation of the averaged measurements.

Assays:
Saccharomyces cerevisiae [1] = assay: protein stability index of tFT-peptide fusion (C-terminal peptide) (PSI (0-1 scale)); higher = more stable (slower turnover)
Method: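 MPS profiling in S. cerevisiae of the tFT-X12 degron library: putative degron peptides plus stable controls, 12 aa, fused to the C-terminus of a sfGFP-mCherry timer. Cells are FACS-sorted into 8 mCherry/sfGFP bins and deep-sequenced. PSI runs from 0 (unstable) to 1 (stable). Backgrounds are wild type, das1Δ and doa10Δ at 30 °C, and wild type, das1Δ, cdc34-1 and cdc53-1 at 37 °C; 2-3 technical replicates each.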

Saccharomyces cerevisiae [2] = assay: as above; details: genetic background: wild type; temperature: 30 C
[3] = genetic background: cdc34-1, temperature: 37 C
[4] = genetic background: cdc53-1, temperature: 37 C
[5] = genetic background: das1 deletion, temperature: 30 C
[6] = genetic background: das1 deletion, temperature: 37 C
[7] = genetic background: doa10 deletion, temperature: 30 C
[8] = genetic background: wild type, temperature: 30 C
[9] = genetic background: wild type, temperature: 37 C
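Note: PSI is a weighted mean of sequencing reads over stability bins, variants kept only with over 10 reads, mCherry proximal and sfGFP distal, peptide attached via GGGS linker.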

Row | Sequence | protein stability index (Saccharomyces cerevisiae [1]; [3]) | protein stability index (Saccharomyces cerevisiae [1]; [4]) | protein stability index (Saccharomyces cerevisiae [1]; [5]) | protein stability index (Saccharomyces cerevisiae [1]; [6]) | protein stability index (Saccharomyces cerevisiae [1]; [7]) | protein stability index (Saccharomyces cerevisiae [1]; [8]) | protein stability index (Saccharomyces cerevisiae [1]; [9]) | protein stability index (Saccharomyces cerevisiae [2])
1 | SRSYNSPSLYVC | 0.498 ± 0.061 | 0.6496 ± 0.0057 | 0.605 ± 0.029 | 0.712 ± 0.0089 | 0.0903 ± 0.0041 | 0.102 ± 0.016 | 0.109 ± 0.0097 | 0.147 ± 0.009
2 | APTMAIIVVHVR | 0.237 ± 0.022 | 0.291 ± 0.013 | 0.22 ± 0.034 | 0.3582 ± 0.0027 | 0.1859 ± 0.0016 | 0.207 ± 0.036 | 0.359 ± 0.019 | 0.3059 ± 0.0021
3 | VVDIFLFFLFVC | 0.171 ± 0.0036 | 0.192 ± 0.027 | 0.243 ± 0.013 | 0.351 ± 0.021 | 0.186 ± 0.0069 | 0.145 ± 0.0086 | 0.216 ± 0.048 | 0.203 ± 0.015
4 | ACLLCVCVESRE | 0.531 ± 0.045 | 0.575 ± 0.053 | 0.414 ± 0.03 | 0.61303 ± 0.00036 | 0.38 ± 0.016 | 0.41 ± 0.015 | 0.5691 ± 0.0014 | 0.494 ± 0.013
5 | PLLSATLTRRLA | 0.622 ± 0.041 | 0.665 ± 0.0088 | 0.684 ± 0.0075 | 0.692 ± 0.0072 | 0.162 ± 0.015 | 0.19 ± 0.03 | 0.386 ± 0.0044 | 0.475 ± 0.024
6 | SLLFPLPRPLLD | 0.7 ± 0.013 | 0.754 ± 0.018 | 0.677 ± 0.015 | 0.719 ± 0.016 | 0.686 ± 0.014 | 0.672 ± 0.024 | 0.7183 ± 0.005 | 0.731 ± 0.016
7 | VRFGYGRIVWDI | 0.706 ± 0.035 | 0.789 ± 0.048 | 0.6514 ± 0.0055 | 0.808 ± 0.018 | 0.472 ± 0.015 | 0.496 ± 0.032 | 0.68 ± 0.016 | 0.5 ± 0.1
8 | APPPLFLIVLHL | 0.469 ± 0.0062 | 0.565 ± 0.0062 | 0.399 ± 0.036 | 0.604 ± 0.028 | 0.324 ± 0.019 | 0.3 ± 0.011 | 0.521 ± 0.026 | 0.424 ± 0.018
9 | SSLAKFQLISTY | 0.429 ± 0.0045 | 0.464 ± 0.011 | 0.316 ± 0.04 | 0.508 ± 0.049 | 0.267 ± 0.003 | 0.305 ± 0.016 | 0.46 ± 0.0088 | 0.394 ± 0.017
10 | VLRACCDWGFLV | 0.53 ± 0.0055 | 0.696 ± 0.039 | 0.655 ± 0.017 | 0.77382 ± 0.00011 | 0.108 ± 0.0016 | 0.108 ± 0.03 | 0.163 ± 0.024 | 0.161 ± 0.02
11 | FLLCRVFVLLRS | 0.043 ± 0.019 | 0.0441 ± 0.015 | 0.13 ± 0.037 | 0.215 ± 0.0095 | 0.1414 ± 0.0013 | 0.102 ± 0.018 | 0.125 ± 0.038 | 0.163 ± 0.045
12 | CMAWLSVLKTLF | 0.709 ± 0.082 | 0.744 ± 0.023 | 0.63 ± 0.017 | 0.756 ± 0.037 | 0.387 ± 0.037 | 0.421 ± 0.012 | 0.615 ± 0.053 | 0.495 ± 0.04
13 | NLFVFLSYLFNV | 0.603 ± 0.051 | 0.66 ± 0.0075 | 0.563 ± 0.013 | 0.7168 ± 0.0052 | 0.336 ± 0.035 | 0.34 ± 0.014 | 0.484 ± 0.013 | 0.422 ± 0.022
14 | WSLPPLLSPLYF | 0.717 ± 0.035 | 0.753 ± 0.019 | 0.67 ± 0.016 | 0.758 ± 0.02 | 0.676 ± 0.024 | 0.672 ± 0.012 | 0.7198 ± 0.0018 | 0.667 ± 0.34
15 | PSSVKLRVPSLY | 0.672 ± 0.029 | 0.762 ± 0.033 | 0.623 ± 0.021 | 0.7309 ± 0.00087 | 0.61091 ± 0.00013 | 0.636 ± 0.015 | 0.715 ± 0.033 | 0.7075 ± 0.0025
16 | KKNLTHSIRVQA | 0.62 ± 0.028 | 0.717 ± 0.0094 | 0.567 ± 0.033 | 0.696 ± 0.011 | 0.352 ± 0.017 | 0.377 ± 0.021 | 0.585 ± 0.015 | 0.505 ± 0.025
17 | KKKKRVKIQKKN | 0.628 ± 0.059 | 0.707 ± 0.052 | 0.683 ± 0.041 | 0.689 ± 0.041 | 0.259 ± 0.04 | 0.244 ± 0.061 | 0.446 ± 0.009 | 0.404 ± 0.03
18 | YGWILQLPCFVI | 0.246 ± 0.02 | 0.237 ± 0.00093 | 0.24 ± 0.031 | 0.37294 ± 0.00032 | 0.219 ± 0.0057 | 0.245 ± 0.023 | 0.315 ± 0.027 | 0.338 ± 0.0082
19 | VFLLLSLSVFFE | 0.0371 ± 0.0054 | 0.0844 ± 0.0086 | 0.138 ± 0.0083 | 0.225 ± 0.0081 | 0.109 ± 0.014 | 0.128 ± 0.043 | 0.142 ± 0.018 | 0.1721 ± 0.0014
20 | IFCRCNSTVLLI | 0.547 ± 0.035 | 0.633 ± 0.013 | 0.483 ± 0.021 | 0.5959 ± 0.0016 | 0.365 ± 0.055 | 0.37 ± 0.018 | 0.522 ± 0.021 | 0.451 ± 0.024

Row | Sequence | protein stability index (Saccharomyces cerevisiae [1]; [3]) | protein stability index (Saccharomyces cerevisiae [1]; [4]) | protein stability index (Saccharomyces cerevisiae [1]; [5]) | protein stability index (Saccharomyces cerevisiae [1]; [6]) | protein stability index (Saccharomyces cerevisiae [1]; [7]) | protein stability index (Saccharomyces cerevisiae [1]; [8]) | protein stability index (Saccharomyces cerevisiae [1]; [9]) | protein stability index (Saccharomyces cerevisiae [2])
21 | MPQSLKKMVFLA | 0.431 ± 0.057 | 0.628 ± 0.022 | 0.61 ± 0.032 | 0.6621 ± 0.005 | 0.0709 ± 0.025 | 0.0847 ± 0.0032 | 0.0875 ± 0.024 | 0.1516 ± 0.0014
22 | CFVQVGGLVKIS | 0.66 ± 0.045 | 0.725 ± 0.042 | 0.61 ± 0.012 | 0.731 ± 0.033 | 0.248 ± 0.02 | 0.293 ± 0.036 | 0.57 ± 0.04 | 0.412 ± 0.012
23 | VGVSCVVCVCGV | 0.493 ± 0.0071 | 0.471 ± 0.02 | 0.289 ± 0.034 | 0.514 ± 0.0077 | 0.2604 ± 0.0024 | 0.295 ± 0.017 | 0.4873 ± 0.0037 | 0.3704 ± 0.0011
24 | PWEYSSQLVLVI | 0.0478 ± 0.02 | 0.0865 ± 0.011 | 0.179 ± 0.025 | 0.2067 ± 0.0011 | 0.155 ± 0.0084 | 0.177 ± 0.023 | 0.159 ± 0.021 | 0.281 ± 0.022
25 | FFVKGFRLLVFQ | 0.454 ± 0.039 | 0.481 ± 0.013 | 0.421 ± 0.04 | 0.573 ± 0.014 | 0.461 ± 0.019 | 0.384 ± 0.014 | 0.516 ± 0.046 | 0.47 ± 0.015
26 | CYKYTYVKNNMI | 0.689 ± 0.042 | 0.7646 ± 0.0044 | 0.642 ± 0.038 | 0.753 ± 0.014 | 0.197 ± 0.013 | 0.231 ± 0.044 | 0.555 ± 0.014 | 0.249 ± 0.051
27 | WLFFVVLPVKAF | 0.0666 ± 0.0023 | 0.146 ± 0.02 | 0.178 ± 0.038 | 0.28 ± 0.016 | 0.104 ± 0.023 | 0.131 ± 0.026 | 0.154 ± 0.001 | 0.231 ± 0.0071
28 | FITFLVFVGFFL | 0.393 ± 0.06 | 0.421 ± 0.0078 | 0.313 ± 0.022 | 0.495 ± 0.026 | 0.263 ± 0.0094 | 0.295 ± 0.026 | 0.448 ± 0.0071 | 0.355 ± 0.034
29 | VISVFAISTRVD | 0.489 ± 0.076 | 0.4901 ± 0.00049 | 0.409 ± 0.057 | 0.5675 ± 0.0051 | 0.398 ± 0.01 | 0.414 ± 0.018 | 0.513 ± 0.066 | 0.475 ± 0.0055
30 | MRLQLTFSILLF | 0.353 ± 0.036 | 0.43 ± 0.034 | 0.378 ± 0.021 | 0.393 ± 0.0059 | 0.4027 ± 0.0029 | 0.37 ± 0.021 | 0.3598 ± 0.0024 | 0.389 ± 0.019
31 | IYTLIINKSKAQ | 0.686 ± 0.024 | 0.685 ± 0.011 | 0.626 ± 0.046 | 0.696 ± 0.072 | 0.282 ± 0.024 | 0.362 ± 0.11 | 0.524 ± 0.017 | 0.429 ± 0.041
32 | LCCTLFFCYSYH | 0.569 ± 0.032 | 0.547 ± 0.064 | 0.418 ± 0.017 | 0.554 ± 0.038 | 0.374 ± 0.0053 | 0.388 ± 0.019 | 0.617 ± 0.098 | 0.424 ± 0.013
33 | VARWVYALGLLC | 0.581 ± 0.035 | 0.6488 ± 0.0027 | 0.545 ± 0.028 | 0.677 ± 0.025 | 0.2 ± 0.0064 | 0.221 ± 0.011 | 0.377 ± 0.013 | 0.312 ± 0.013
34 | LCYFFFISLFLG | 0.628 ± 0.032 | 0.572 ± 0.014 | 0.465 ± 0.021 | 0.55 ± 0.0089 | 0.2248 ± 0.0011 | 0.26 ± 0.023 | 0.403 ± 0.0052 | 0.328 ± 0.0056
35 | GYSMPVSFFFAL | 0.669 ± 0.057 | 0.779 ± 0.012 | 0.616 ± 0.017 | 0.745 ± 0.0082 | 0.201 ± 0.011 | 0.24 ± 0.017 | 0.453 ± 0.014 | 0.356 ± 0.0092
36 | FVWVVRMLVFVP | 0.178 ± 0.0058 | 0.2493 ± 0.00099 | 0.187 ± 0.025 | 0.383 ± 0.023 | 0.165 ± 0.008 | 0.16 ± 0.025 | 0.3 ± 0.0077 | 0.276 ± 0.017
37 | SYALGNVVGGSL | 0.675 ± 0.045 | 0.75 ± 0.015 | 0.637 ± 0.018 | 0.748 ± 0.014 | 0.631 ± 0.025 | 0.645 ± 0.0065 | 0.721 ± 0.022 | 0.72 ± 0.013
38 | VFSLFLVLNYPF | 0.302 ± 0.046 | 0.296 ± 0.043 | 0.373 ± 0.021 | 0.495 ± 0.01 | 0.466 ± 0.021 | 0.362 ± 0.012 | 0.432 ± 0.025 | 0.446 ± 0.037
39 | VVFVRLGWMRAC | 0.441 ± 0.034 | 0.52 ± 0.017 | 0.43 ± 0.03 | 0.59 ± 0.018 | 0.0904 ± 0.01 | 0.0972 ± 0.021 | 0.112 ± 0.0058 | 0.172 ± 0.046
